Like-named read-outs stand apart in the source and are kept apart here.
Assays:
[1] = biological target: T1, human VISTA (ECD)-his (Sino Biological, Cat #:13482-H08H) (human, UniProt Q9H7M9 33-194); assay: SPR (BIAcore 8K), human VISTA (ECD)-his coupled to the chip, antibody injected
T1 construct: extracellular domain; Bought protein; also called hVISTA(ECD)-his; recombinant human VISTA(ECD)-his; not shown: his tag
T1 sequence (looked up): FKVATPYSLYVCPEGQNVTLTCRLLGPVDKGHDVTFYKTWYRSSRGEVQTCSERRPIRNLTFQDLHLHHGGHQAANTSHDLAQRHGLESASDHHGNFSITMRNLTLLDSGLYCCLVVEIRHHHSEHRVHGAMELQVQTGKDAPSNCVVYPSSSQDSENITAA
Method: (§1) They were also tested in SPR assays for their binding affinities to human and monkey VISTA with the BIAcore™ 8K instrument (GE Life Sciences). Briefly, 100-200 response units (RU) of human VISTA (ECD)-his protein (Sino Biological, CN, Cat #:13482-H08H) or monkey VISTA (ECD)-his protein (Sino Biological, CN, Cat #:90801-K08H) were coupled to CM5 biosensor chips (Cat #: BR-1005-30, GE Life Sciences), followed by blocking of un-reacted groups with 1M ethanolamine. Serially diluted antibodies at concentrations ranging from 0.3 µM to 10 µM were injected into the SPR running buffer (HBS-EP buffer, pH7.4, GE Life Sciences; US; Cat #:BR-1006-69) at 30 µL/minute. The binding capacitities were calculated with the RUs of blank controls subtracted. The association rate (k_a) and dissociation rate (k_d) were calculated using the one-to-one Langmuir binding model (BIA Evaluation Software, GE Life Sciences). The equilibrium dissociation constant K_D was calculated as the k_d/k_a ratio.

[2] = biological target: T1, human VISTA (ECD)-his (Sino Biological, …); assay: ELISA, plate coated with human VISTA (ECD)-his, OD450 [panel A]
[3] = biological target: T2, mouse VISTA expressed on HEK293A cells (mouse, UniProt Q9D659 33-308); assay: FACS on HEK293A/mouse VISTA cells, MFI [panel C]
T2 construct: also called HEK293A/mouseVISTA; HEK293A/mouse VISTA
T2 sequence: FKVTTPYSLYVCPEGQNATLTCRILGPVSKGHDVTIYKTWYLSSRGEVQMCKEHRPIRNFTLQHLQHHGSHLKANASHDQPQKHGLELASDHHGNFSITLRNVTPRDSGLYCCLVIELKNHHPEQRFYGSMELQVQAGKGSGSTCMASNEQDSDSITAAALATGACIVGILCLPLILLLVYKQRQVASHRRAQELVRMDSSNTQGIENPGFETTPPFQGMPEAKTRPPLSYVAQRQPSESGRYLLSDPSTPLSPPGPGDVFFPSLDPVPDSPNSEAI

[4] = biological target: T1, human VISTA (ECD)-his (Sino Biological, …); assay: ELISA, plate coated with human VISTA (ECD)-his, OD450 [panel A]; remark: listed apart in the source
[5] = biological target: T3, monkey VISTA (ECD)-his (Sino Biological, Cat #: 90801-K08H) (cynomolgus monkey); assay: ELISA, plate coated with monkey VISTA (ECD)-his, OD450 [panel B]
T3 construct: extracellular domain; Bought protein; also called cynoVISTA(ECD)-his; cynomolgus VISTA (ECD)-his

[6] = biological target: T4, mouse VISTA-his (Sino Biological, Cat #:511550-M08H) (mouse, UniProt Q9D659 33-191); assay: ELISA, plate coated with mouse VISTA-his, OD450 [panel C]
T4 construct: extracellular domain; Bought protein; also called muVISTA-his; mouse VISTA (ECD)-his; not shown: his tag
T4 sequence (looked up): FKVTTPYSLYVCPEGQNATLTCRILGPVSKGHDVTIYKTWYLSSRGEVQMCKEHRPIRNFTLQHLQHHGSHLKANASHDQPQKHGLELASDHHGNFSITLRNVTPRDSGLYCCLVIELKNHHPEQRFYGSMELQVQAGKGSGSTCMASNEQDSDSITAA

[7] = biological target: T3, monkey VISTA (ECD)-his (Sino …); assay: ELISA, plate coated with monkey VISTA (ECD)-his, OD450 [panel B]; remark: listed apart in the source
[8] = biological target: T3, monkey VISTA (ECD)-his (Sino …); assay: SPR (BIAcore 8K), monkey VISTA (ECD)-his coupled to the chip, antibody injected
Method: as §1

B1: chimeric 161E5 antibody (antibody, human IgG1, kappa, V domains shown)
VH: QVQLKQSGAELVRPGASVKLSCKASGYSFTDYYINWVKQRPGQGLEWIARIFPGSGNAYYNEKFKDKATLTVEKSSSAAYMQLSSLTSEDSAVYFCARDDSFYGYWYFDVWGTGTTVTVSS
VL: NIMMTQSPSSLAVSAGEKVTMSCKSSQSVLYSSNQKNYLAWYQQKPGQSPKLLIYWASTRESGVPDRFTGSGSGTDFTLTISSVQAEDLAVYYCHQYLSSYTFGGGTKLEIKR
[1]
  Kd: 0.0139 nM
[2]
  EC50 (read off the curve): ~0.03 µg/mL
[3]
  binding result: no binding (tested: log 4 ng/ml (10000 ng/ml))
[4]
  EC50 (read off the curve): ~0.02 µg/mL
[5]
  EC50 (read off the curve): ~0.03 µg/mL
[6]
  binding result: no binding (tested: about log 4.3 ng/ml (about 20000 ng/ml))
[7]
  EC50 (read off the curve): ~0.03 µg/mL

B2: 161E5-VH2VL2 (antibody, human IgG1, kappa, V domains shown)
VH: QVQLVQSGAEVKKPGASVKVSCKASGYSFTDYYINWVRQAPGQGLEWIARIFPGSGNAYYNEKFKDRATLTVDKSTSTAYMELSSLRSEDTAVYYCARDDSFYGYWYFDVWGQGTTVTVSS
VL: NIMMTQSPATLSVSPGERATLSCKSSQSVLYSSNQKNYLAWYQQKPGQAPRLLIYWASTRESGVPDRFSGSGSGTEFTLTISSLQSEDFAVYYCHQYLSSYTFGGGTKVEIKR
notes: One of the 5 humanized 161E5 antibodies, human IgG1/kappa; also called humanized antibody 161E5-VH2VL2
[2]
  EC50 (read off the curve): ~0.03 µg/mL
[7]
  EC50 (read off the curve): ~0.03 µg/mL

B3: 161E5-VH0VL0 (antibody, human IgG1, kappa, V domains shown)
VH: QVQLVQSGAEVKKPGASVKVSCKASGYSFTDYYINWVRQAPGQGLEWMGRIFPGSGNAYYNEKFKDRVTMTRDTSTSTVYMELSSLRSEDTAVYYCARDDSFYGYWYFDVWGQGTTVTVSS
VL: EIVMTQSPATLSVSPGERATLSCKSSQSVLYSSNQKNYLAWYQQKPGQAPRLLIYWASTRESGIPARFSGSGSGTEFTLTISSLQSEDFAVYYCHQYLSSYTFGGGTKVEIKR
notes: One of the 5 humanized 161E5 antibodies, human IgG1/kappa; also called humanized antibody 161E5-VH0VL0
[2]
  EC50 (read off the curve): ~0.03 µg/mL
[7]
  EC50 (read off the curve): ~0.03 µg/mL

B4: 161E5-VH2VL3 (antibody, human IgG1, kappa, V domains shown)
VH: QVQLVQSGAEVKKPGASVKVSCKASGYSFTDYYINWVRQAPGQGLEWIARIFPGSGNAYYNEKFKDRATLTVDKSTSTAYMELSSLRSEDTAVYYCARDDSFYGYWYFDVWGQGTTVTVSS
VL: NIMMTQSPATLSVSPGERATLSCKSSQSVLYSSNQKNYLAWYQQKPGQSPRLLIYWASTRESGVPDRFSGSGSGTEFTLTISSLQSEDFAVYYCHQYLSSYTFGGGTKVEIKR
notes: One of the 5 humanized 161E5 antibodies, human IgG1/kappa; also called humanized antibody 161E5VH2VL3
[1]
  Kd: 0.00236 nM
[8]
  Kd: 0.0145 nM
[2]
  EC50 (read off the curve): ~0.03 µg/mL
[7]
  EC50 (read off the curve): ~0.03 µg/mL

B5: 161E5-VH3VL2 (antibody, human IgG1, kappa, V domains shown)
VH: QVQLVQSGAEVKKPGASVKVSCKASGYSFTDYYINWVRQRPGQGLEWIARIFPGSGNAYYNEKFKDRATLTVDKSTSTAYMELSSLRSEDTAVYFCARDDSFYGYWYFDVWGQGTTVTVSS
VL: NIMMTQSPATLSVSPGERATLSCKSSQSVLYSSNQKNYLAWYQQKPGQAPRLLIYWASTRESGVPDRFSGSGSGTEFTLTISSLQSEDFAVYYCHQYLSSYTFGGGTKVEIKR
notes: One of the 5 humanized 161E5 antibodies, human IgG1/kappa; also called humanized antibody 161E5-VH3VL2
[2]
  EC50 (read off the curve): ~0.03 µg/mL
[7]
  EC50 (read off the curve): ~0.03 µg/mL

B6: 161E5-VH3VL3 (antibody, human IgG1, kappa, V domains shown)
VH: QVQLVQSGAEVKKPGASVKVSCKASGYSFTDYYINWVRQRPGQGLEWIARIFPGSGNAYYNEKFKDRATLTVDKSTSTAYMELSSLRSEDTAVYFCARDDSFYGYWYFDVWGQGTTVTVSS
VL: NIMMTQSPATLSVSPGERATLSCKSSQSVLYSSNQKNYLAWYQQKPGQSPRLLIYWASTRESGVPDRFSGSGSGTEFTLTISSLQSEDFAVYYCHQYLSSYTFGGGTKVEIKR
notes: One of the 5 humanized 161E5 antibodies, human IgG1/kappa; also called humanized antibody 161E5VH3VL3
[1]
  Kd: 0.0226 nM
[8]
  Kd: 0.0399 nM
[2]
  EC50 (read off the curve): ~0.03 µg/mL
[7]
  EC50 (read off the curve): ~0.03 µg/mL

Reference: patent publication US10577424 (BEIJING MABWORKS BIOTECH, dated 2020)
